Each block holds one binder with its values, some of them ahead of it.
Experiments:
poly(L-methionine …) [1] = target: T1, poly(L-methionine sulfoxide-stat-L-alanine)155-block-poly(L-glutamate-Na)90, (M^OA)155E90 (not fully specified; L-methionine sulfoxide (M^O) residues in the statistical M^O/A segment (ca. 88 mol % M^O, 12 mol % Ala)); test: mixing of length-mismatched copolypeptides at E to K stoichiometry; hydrogel formation
T1 chain: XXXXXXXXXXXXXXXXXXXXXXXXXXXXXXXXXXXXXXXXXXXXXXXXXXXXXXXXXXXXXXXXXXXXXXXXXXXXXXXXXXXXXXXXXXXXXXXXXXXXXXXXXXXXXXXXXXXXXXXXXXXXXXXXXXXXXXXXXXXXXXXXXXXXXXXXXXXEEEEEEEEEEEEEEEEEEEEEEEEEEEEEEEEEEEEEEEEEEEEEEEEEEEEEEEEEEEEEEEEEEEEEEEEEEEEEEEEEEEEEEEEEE

poly(L-methionine …) [2] = target: T2, poly(L-methionine sulfoxide-stat-L-alanine)155-block-poly(L-glutamate-Na)30, (M^OA)155E30 (not fully specified; L-methionine sulfoxide (M^O) residues in the statistical M^O/A segment (ca. 88 mol % M^O, 12 mol % Ala)); test: mixing of equal volumes of 5.0 wt % solutions in 1xPBS; polyion complex hydrogel formation
T2 chain: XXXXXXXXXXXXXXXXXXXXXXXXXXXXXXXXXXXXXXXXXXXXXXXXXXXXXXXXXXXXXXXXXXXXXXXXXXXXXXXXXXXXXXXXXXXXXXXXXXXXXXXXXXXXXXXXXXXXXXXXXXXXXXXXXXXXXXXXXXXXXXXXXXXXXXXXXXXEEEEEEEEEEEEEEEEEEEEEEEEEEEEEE

poly(L-methionine …) [3] = target: T3, poly(L-methionine sulfoxide-stat-L-alanine)155-block-poly(L-glutamate-Na)120, (M^OA)155E120 (not fully specified; L-methionine sulfoxide (M^O) residues in the statistical M^O/A segment (ca. 88 mol % M^O, 12 mol % Ala)); test: as above
T3 chain: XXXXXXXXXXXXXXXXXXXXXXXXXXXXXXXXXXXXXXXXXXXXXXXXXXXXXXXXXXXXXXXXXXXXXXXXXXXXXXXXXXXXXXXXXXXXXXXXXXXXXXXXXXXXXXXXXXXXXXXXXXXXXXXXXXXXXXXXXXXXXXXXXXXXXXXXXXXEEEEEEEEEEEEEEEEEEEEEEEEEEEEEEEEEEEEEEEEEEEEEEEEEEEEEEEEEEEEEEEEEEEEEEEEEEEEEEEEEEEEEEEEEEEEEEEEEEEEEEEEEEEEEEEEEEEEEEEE

[4] = target: T4, FITC labeled (M^OA)155E60 (not fully specified; L-methionine sulfoxide (M^O) residues in the statistical M^O/A segment; fluorescein isothiocyanate (FITC) conjugated onto the N-terminal amine); test: laser scanning confocal microscopy of fluorescently labeled hydrogel, 3.0 wt % in PBS
T4 construct: Fluorescently labeled form of (M^OA)155E60 used for confocal microscopy; also called E labeled (FITC)
T4 chain: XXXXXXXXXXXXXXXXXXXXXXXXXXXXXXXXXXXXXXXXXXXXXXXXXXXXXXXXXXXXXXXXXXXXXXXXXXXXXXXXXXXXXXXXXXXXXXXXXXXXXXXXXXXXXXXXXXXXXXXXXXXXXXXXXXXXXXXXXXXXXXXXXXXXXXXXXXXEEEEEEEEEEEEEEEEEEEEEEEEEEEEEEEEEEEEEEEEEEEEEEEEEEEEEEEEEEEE
Description: Laser scanning confocal microscopy (LSCM) was then used to visualize the labeled chains and the hydrogel network (FIG. 3A-3B).
Example 8—Laser Scanning Confocal Microscopy (LSCM) of Fluorescently Labeled Hydrogels LSCM images of hydrogels (3.0 wt % in PBS) were taken on a Leica TCS-SP1 MP-Inverted Confocal and Multiphoton Microscope equipped with an argon laser (476 and 488 nm blue lines), a diode (DPSS) laser (561 nm yellow-green line), and a helium-neon laser (633 nm far red line). Fluorescently labeled hydrogel samples were visualized on glass slides with a spacer between the slide and the cover slip (double-sided tape) allowing the self-assembled structures to be minimally disturbed during focusing. A Z-slice thickness of 0.78 µm was used. Sample imaging was performed at the Advanced Light Microscopy/Spectroscopy Center (ALMS) at the UCLA California NanoSystems Institute (CNSI).

poly(L-methionine …) [5] = target: T5, poly(L-methionine sulfoxide0.88-stat-L-alanine0.12)155-block-poly(L-glutamate)60, (M^OA)155E60 (not fully specified; L-methionine sulfoxide (M^O) residues in the statistical M^O/A segment (ca. 88 mol % M^O, 12 mol % Ala)); test: mixing of equal volumes of 5.0 wt % solutions in 1xPBS; polyion complex hydrogel formation
T5 chain: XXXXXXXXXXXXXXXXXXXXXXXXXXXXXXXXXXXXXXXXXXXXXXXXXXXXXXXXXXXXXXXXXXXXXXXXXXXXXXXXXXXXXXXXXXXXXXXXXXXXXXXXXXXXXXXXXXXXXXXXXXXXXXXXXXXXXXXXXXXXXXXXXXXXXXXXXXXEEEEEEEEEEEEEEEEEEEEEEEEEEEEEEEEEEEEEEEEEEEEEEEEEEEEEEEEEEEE

poly(L-methionine …) [6] = target: T1, poly(L-methionine …); test: as above

- binding result (poly(L-methionine …) [5]): binds
B4: poly(L-methionine sulfoxide0.88-stat-L-alanine0.12)155-block-poly(L-lysine)60, (M^OA)155K60 (other)
chain: XXXXXXXXXXXXXXXXXXXXXXXXXXXXXXXXXXXXXXXXXXXXXXXXXXXXXXXXXXXXXXXXXXXXXXXXXXXXXXXXXXXXXXXXXXXXXXXXXXXXXXXXXXXXXXXXXXXXXXXXXXXXXXXXXXXXXXXXXXXXXXXXXXXXXXXXXXXKKKKKKKKKKKKKKKKKKKKKKKKKKKKKKKKKKKKKKKKKKKKKKKKKKKKKKKKKKKK
modifications: not fully specified; X: randomised place (mixture); also: X1-155: Met(O) or Ala, statistical (ca. 88 mol % Met(O), 12 mol % Ala), HCl salt

- binding result (poly(L-methionine …) [6]): binds
B5: poly(L-methionine sulfoxide-stat-L-alanine)155-block-poly(L-lysine-HCl)90, (M^OA)155K90 (other)
chain: XXXXXXXXXXXXXXXXXXXXXXXXXXXXXXXXXXXXXXXXXXXXXXXXXXXXXXXXXXXXXXXXXXXXXXXXXXXXXXXXXXXXXXXXXXXXXXXXXXXXXXXXXXXXXXXXXXXXXXXXXXXXXXXXXXXXXXXXXXXXXXXXXXXXXXXXXXXKKKKKKKKKKKKKKKKKKKKKKKKKKKKKKKKKKKKKKKKKKKKKKKKKKKKKKKKKKKKKKKKKKKKKKKKKKKKKKKKKKKKKKKKKK
modifications: not fully specified; X: randomised place (mixture); also: X1-155: Met(O) or Ala, statistical (ca. 88 mol % Met(O)), HCl salt

More lines, now with the values behind:

B1: poly(L-methionine sulfoxide-stat-L-alanine)155-block-poly(L-lysine-HCl)30, (M^OA)155K30 (other)
chain: XXXXXXXXXXXXXXXXXXXXXXXXXXXXXXXXXXXXXXXXXXXXXXXXXXXXXXXXXXXXXXXXXXXXXXXXXXXXXXXXXXXXXXXXXXXXXXXXXXXXXXXXXXXXXXXXXXXXXXXXXXXXXXXXXXXXXXXXXXXXXXXXXXXXXXXXXXXKKKKKKKKKKKKKKKKKKKKKKKKKKKKKK
modifications: not fully specified; L-methionine sulfoxide (M^O) residues in the statistical M^O/A segment (ca. 88 mol % M^O, 12 mol % Ala)
- binding result (poly(L-methionine …) [1]): binds
- binding result (poly(L-methionine …) [2]): binds

B2: poly(L-methionine sulfoxide-stat-L-alanine)155-block-poly(L-lysine-HCl)120, (M^OA)155K120 (other)
chain: XXXXXXXXXXXXXXXXXXXXXXXXXXXXXXXXXXXXXXXXXXXXXXXXXXXXXXXXXXXXXXXXXXXXXXXXXXXXXXXXXXXXXXXXXXXXXXXXXXXXXXXXXXXXXXXXXXXXXXXXXXXXXXXXXXXXXXXXXXXXXXXXXXXXXXXXXXXKKKKKKKKKKKKKKKKKKKKKKKKKKKKKKKKKKKKKKKKKKKKKKKKKKKKKKKKKKKKKKKKKKKKKKKKKKKKKKKKKKKKKKKKKKKKKKKKKKKKKKKKKKKKKKKKKKKKKKKK
modifications: X: randomised place (mixture); also: X1-155: Met(O) or Ala, statistical (ca. 88 mol % Met(O)), polydisperse, lengths nominal, HCl salt
- binding result (poly(L-methionine …) [3]): binds

B3: TRITC labeled (M^OA)155K60 (other)
chain: XXXXXXXXXXXXXXXXXXXXXXXXXXXXXXXXXXXXXXXXXXXXXXXXXXXXXXXXXXXXXXXXXXXXXXXXXXXXXXXXXXXXXXXXXXXXXXXXXXXXXXXXXXXXXXXXXXXXXXXXXXXXXXXXXXXXXXXXXXXXXXXXXXXXXXXXXXXKKKKKKKKKKKKKKKKKKKKKKKKKKKKKKKKKKKKKKKKKKKKKKKKKKKKKKKKKKKK
modifications: X: randomised place (mixture); also: positions 1-155 statistical Met(O)/Ala copolymer, polydisperse, nominal block lengths, TRITC on an unspecified Lys side chain, about 1 probe per 5 chains, Lys as HCl salt
notes: Fluorescently labeled form of (M^OA)155K60 used for confocal microscopy; also called K labeled (TRITC)
- binding result [4]: binds

— patent publication US12226546 (University of California, dated 2025)
